{"source": "patent US11291722B2", "about": "“Vaccine composition comprising cyclic peptides, antibodies to the cyclic peptides or an anticancer composition comprising the same” (Industry Academic Cooperation Foundation, Hallym University, priority 2016, dated 2022)", "molecules": {"B1": {"name": "mEC2-C: mouse IgG3 anti-TM4SF5 monoclonal antibody from hybridoma clone 2A10, recognizing hTM4SF5EC2-C cyclic peptide (antibody, V domains shown)", "VH": "QVQLEESGPGLVAPSQSLSIICTVSGFSLTSYGVTWVRQPPGKGLEWLGVIWSDGSTNYQSALISRLTISRDNSKSQAFLKLNSLQTDDTATYYCARPSNYYYFDYWGQGTTLTVSS", "VL": "DIVMTQSPSSLAVSAGERVTLSCKSSQSLFDRRTRKTYLAWYQQKPGQSPKLLISWASTRESGVPDRFTGSGSGTDFTLTISSVQAEDLAVYYCKQSYNLFTFGGGTKLEIK"}}, "key": {"[1]": {"biological_target": "T1, TM4SF5 (Homo sapiens, UniProt O14894)", "T1 sequence (O14894 1-197)": "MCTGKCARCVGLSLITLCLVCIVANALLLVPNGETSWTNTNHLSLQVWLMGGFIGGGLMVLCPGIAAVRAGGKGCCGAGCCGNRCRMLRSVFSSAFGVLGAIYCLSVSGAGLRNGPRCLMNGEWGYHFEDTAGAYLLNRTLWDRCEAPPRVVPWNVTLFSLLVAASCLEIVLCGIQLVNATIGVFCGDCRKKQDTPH", "details": "in vitro and in vivo; cited from earlier work"}, "[2]": {"biological_target": "T2, hTM4SF5EC2-C cyclic peptide (Homo sapiens, UniProt O14894, G133C/V156C)", "T2 construct": "purchased Peptron, Co., Ltd; host or cells: chemical synthesis", "T2 sequence (O14894 131-157 G133C/V156C)": "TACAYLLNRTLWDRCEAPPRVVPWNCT", "assay": "ELISA binding of monoclonal antibody to cyclic peptide", "procedure": "Mice were sacrificed before and 10 days after each administration to obtain serum. To determine the total IgG titer and amount, a 96-well immunoplate (Nalgen Nunc International) was coated with 5 μg/ml hTM4SF5EC2-C cyclic peptide and blocked with 0.05% PBST containing 1% BSA for two hours. After removal of blocking solution, 100 μl of the culture supernatant was added and incubated for 2 hours at room temperature, then washed with PBST and incubated for 2 hours with the detection antibody such as horseradish peroxidase (HRP)-bound an anti-IgG antibody. Colorimetric assays were developed with TMB substrate solutions and absorbance was measured at 450 nm using a Spectra Max 250 microplate reader."}, "[3]": {"biological_target": "T3, hTM4SF5EC2-C cyclic peptide (Homo sapiens, UniProt O14894, G133C)", "T3 construct": "purchased Peptron, Co., Ltd; host or cells: chemical synthesis", "T3 sequence (O14894 with tags, fused parts or gaps G133C)": "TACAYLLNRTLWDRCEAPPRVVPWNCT", "assay": "SPR (surface plasmon resonance) analysis", "assay_type": "binding", "details": "25° C.", "procedure": "FIG. 6 represents purification and characterization of mouse anti-TM4SF5 monoclonal antibodies recognizing TM4SF5 cyclic peptides. (A) Hydrops abdominis was producted from BALB/c mice by injecting i.p. into the abdominal cavity with hybridoma clone (2A10 clone) derived from FIG. 5. Anti-TM4SF5 monoclonal antibody was purified using protein-A agarose column chromatography and the purified antibody was identified by SDS-PAGE and Coomassie blue staining. (B) The isotype was determined by obtaining titration curves using purified monoclonal antibodies. (C) A binding affinity of monoclonal antibody for cyclic peptide hTM4SF5EC2-C was determined by using ELISA. (D) A binding affinity of monoclonal antibody for cyclic peptide […] was determined by using Reichert Analytical Instruments SPR 7500DC (Reichert). […] (E) HEK 293F-EV (empty vector) and proteins from HEK 293F-TM4SF5 cells were separated by SDS-PAGE and analyzed by Western Blot using anti-TM4SF5 monoclonal antibody (mEC2-C), anti-Myc antibody or anti-β-actin antibody. HEK 293F-EV and proteins of HEK 293F-TM4SF5 cell were immunoprecipitated with mEC2-C and analyzed by Western blot using anti-Myc antibody. […]\nThe affinities of anti-hTM4SF5 monoclonal antibody (mEC2-C) and humanized anti-TM4SF5 antibody (hEC2-C-2) binding to hTM4SF5EC2-C cyclic peptide were measured at 25° C. using the Reichert SPR system. […]"}, "[4]": {"biological_target": "T4, Myc-tagged recombinant TM4SF5 protein (Homo sapiens, UniProt O14894)", "T4 construct": "expressed in transfected cells", "T4 sequence (O14894 1-197)": "T1 sequence (O14894 1-197)", "assay": "Western blot and immunoprecipitation on TM4SF5-overexpressing HEK 293F cells", "assay_type": "binding", "details": "HEK 293F cells overexpressing TM4SF5 vs HEK 293F control", "procedure": "Human TM4SF5 cDNA was amplified by RT-PCR from Huh-7 mRNA using the following primer set: hTM4SF5 5′ primer, 5′-[…]-3′ (SEQ ID NO: 24), hTM4SF5 3′ primer, 5′-[…]-3′ (SEQ ID NO: 25). The cDNA fragment was cloned into the expression vector pcDNA-3.1/Myc-His(−)B (Invitrogen). HEK 293F cells (1×10^6 cells/ml) were transfected with 2.5 μg/ml hTM4SF5/pcDNA and 7.5 μg/ml polyethylenimine (PEI, Polysciences) for the production of stable cell lines expressing hTM4SF5, and the transfected cells were collected using 500 μg/ml G418 (Calbiochem) for 14 days. Expression of Myc-tagged hTM4SF5 was confirmed by Western blot analysis using anti-Myc-tag antibodies.\nIn order to analyze the specificity of anti-TM4SF5 monoclonal antibody and humanized anti-TM4SF5 antibody, TM4SF5-overexpressed cell lysates were separated on SDS-PAGE, and Western blot and immunoprecipitation assays were performed as described on Kwon S, Kim D, Rhee J W, Park J A, Kim D W, Kim D S, Lee Y, Kwon H J. BMC Biol. 2010; 8:23. In order to identify the expression of E-cadherin and β-catenin in humanized anti-TM4SF5 antibody-treated cells, cell lysates were analyzed with SDS-PAGE and Western blotting method as descried in Kwon S, Choi K C, Kim Y E, Ha Y W, Kim D, Park B K, Wu G, Kim D S, Lee Y, Kwon H J. Cancer Res. 2014; 74(14):3844-3856."}, "[5]": {"tested_on": "HT-29 cells", "assay_type": "in vivo, BALB/cAnNCri-nu/nu mice", "details": "25 mg/kg tail vein twice a week; compared to PBS control", "procedure": "Mouse tumor models were established by implanting HT-29 cells into BALB/cAnNCri-nu/nu mice. PBS or anti-TM4SF5 monoclonal antibody was injected into the mice when the tumor size reaches 5 mm in diameter and the tumor growth was monitored for 31 days (n=6 each). (A) Experimental schedule. (B) Macroscopic appearance of colon cancer tissue. (C) Tumor volume (width^2×length/2). (D) Tumor weight. (E) Weight.\nTwelve BALB/cAnNCri-nu/nu mice were subcutaneously injected with 5×10^6 HT-29 cells containing 50% matrigel (BD biosciences) on the dorsal right flank. When the tumor diameter reached 5 mm, the mice were randomly sorted into two treatment groups (6 mice/each group) of PBS and anti-TM4SF5 monoclonal antibody (mEC2-C). Antibodies (25 mg/kg) were injected into the tail vein twice a week. During 30 days after injecting the cancer cell, the tumor diameter was measured per 3 or 4 day-interval, and the tumor volume was calculated according to an equation Width^2×length/2. When the tumor size is reached ±600 mm^3, BACB/cAnNCri-NCri-nu/nu mice were sacrificed, and the tumor weight was measured."}}}
{"molecule": "Cc1ccc(S(=O)(=O)Nc2ccc(C(=O)/C=C/c3ccc(O)cc3)cc2)cc1", "note": "[TSAHC, 4′-(p-toluenesulfonyl-amido)-4-hydroxychalcone]", "values": [{"measurement": "HCC growth and metastasis", "setting": "[1]", "result": "inhibited HCC growth and metastasis in vitro and in vivo"}]}
{"molecule": "B1", "values": [{"measurement": "binding to cyclic peptide hTM4SF5EC2-C by ELISA", "setting": "[2]", "result": "specific binding"}, {"measurement": "off rate (kd)", "setting": "[3]", "result": "10^−5 /sec"}, {"measurement": "recognition of TM4SF5 protein by Western blot and immunoprecipitation", "setting": "[4]", "result": "recognize Myc-tagged recombinant TM4SF5 protein"}, {"measurement": "progression of colon cancer (tumor volume and weight)", "setting": "[5]", "result": "attenuated progression of colon cancer"}]}
